B1: Zinc finger protein 581 (Homo sapiens), Q9P0T4 (parent)
chain: MLVLPSPCPQPLAFSSVETMEGPPRRTCRSPEPGPSSSIGSPQASSPPRPNHYLLIDTQGVPYTVLVDEESQREPGASGAPGQKKCYSCPVCSRVFEYMSYLQRHSITHSEVKPFECDICGKAFKRASHLARHHSIHLAGGGRPHGCPLCPRRFRDAGELAQHSRVHSGERPFQCPHCPRRFMEQNTLQKHTRWKHP
B2: LIM/homeobox protein Lhx4 (Homo sapiens), Q969G2 (parent)
chain: MMQSATVPAEGAVKGLPEMLGVPMQQIPQCAGCNQHILDKFILKVLDRHWHSSCLKCADCQMQLADRCFSRAGSVYCKEDFFKRFGTKCTACQQGIPPTQVVRKAQDFVYHLHCFACIICNRQLATGDEFYLMEDGRLVCKEDYETAKQNDDSEAGAKRPRTTITAKQLETLKNAYKNSPKPARHVREQLSSETGLDMRVVQVWFQNRRAKEKRLKKDAGRHRWGQFYKSVKRSRGSSKQEKESSAEDCGVSDSELSFREDQILSELGHTNRIYGNVGDVTGGQLMNGSFSMDGTGQSYQDLRDGSPYGIPQSPSSISSLPSHAPLLNGLDYTVDSNLGIIAHAGQGVSQTLRAMAGGPTSDISTGSSVGYPDFPTSPGSWLDEMDHPPF
partner: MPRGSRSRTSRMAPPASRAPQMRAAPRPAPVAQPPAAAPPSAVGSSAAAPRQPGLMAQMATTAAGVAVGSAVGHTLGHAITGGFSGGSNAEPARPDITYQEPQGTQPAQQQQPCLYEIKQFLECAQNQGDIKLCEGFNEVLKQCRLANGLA
B3: Migration and invasion-inhibitory protein (Homo sapiens), Q5JXC2 (parent)
chain: MVEAEELAQLRLLNLELLRQLWVGQDAVRRSVARAASESSLESSSSYNSETPSTPETSSTSLSTSCPRGRSSVWGPPDACRGDLRDVARSGVASLPPAKCQHQESLGRPRPHSAPSLGTSSLRDPEPSGRLGDPGPQEAQTPRSILAQQSKLSKPRVTFSEESAVPKRSWRLRPYLGYDWIAGSLDTSSSITSQPEAFFSKLQEFRETNKEECICSHPEPQLPGLRESSGSGVEEDHECVYCYRVNRRLFPVPVDPGTPCRLCRTPRDQQGPGTLAQPAHVRVSIPLSILEPPHRYHIHRRKSFDASDTLALPRHCLLGWDIFPPKSEKSSAPRNLDLWSSVSAEAQHQKLSGTSSPFHPASPMQMLPPTPTWSVPQVPRPHVPRQKP
B4: A-kinase anchor protein 17A (Homo sapiens), Q02040 (parent)
chain: MAAATIVHDTSEAVELCPAYGLYLKPITKMTISVALPQLKQPGKSISNWEVMERLKGMVQNHQFSTLRISKSTMDFIRFEGEVENKSLVKSFLACLDGKTIKLSGFSDILKVRAAEFKIDFPTRHDWDSFFRDAKDMNETLPGERPDTIHLEGLPCKWFALKESGSEKPSEDVLVKVFEKFGEIRNVDIPMLDPYREEMTGRNFHTFSFGGHLNFEAYVQYREYMGFIQAMSALRGMKLMYKGEDGKAVACNIKVSFDSTKHLSDASIKKRQLERQKLQELEQQREEQKRREKEAEERQRAEERKQKELEELERERKREEKLRKREQKQRDRELRRNQKKLEKLQAEEQKQLQEKIKLEERKLLLAQRNLQSIRLIAELLSRAKAVKLREQEQKEEKLRLQQQEERRRLQEAELRRVEEEKERALGLQRKERELRERLLSILLSKKPDDSHTHDELGVAHADLLQPVLDILQTVSSGCVSATTLHPLGGQPPAGAPKESPAHPEADGAPKSVNGSVAEEAPCKEVQSSCRVVPEDGSPEKRCPGGVLSCIPDNNQQPKGIPACEQNVSRKDTRSEQDKCNREPSKGRGRATGDGLADRHKRERSRARRASSREDGRPRKERRPHKKHAYKDDSPRRRSTSPDHTRSRRSHSKDRHRRERSRERRGSASRKHSRHRRRSERSRSRSPSRHRSTWNR
B5: Glycine N-methyltransferase (Homo sapiens), Q14749 (parent)
chain: MVDSVYRTRSLGVAAEGLPDQYADGEAARVWQLYIGDTRSRTAEYKAWLLGLLRQHGCQRVLDVACGTGVDSIMLVEEGFSVTSVDASDKMLKYALKERWNRRHEPAFDKWVIEEANWMTLDKDVPQSAEGGFDAVICLGNSFAHLPDCKGDQSEHRLALKNIASMVRAGGLLVIDHRNYDHILSTGCAPPGKNIYYKSDLTKDVTTSVLIVNNKAHMVTLDYTVQVPGAGQDGSPGLSKFRLSYYPHCLASFTELLQAAFGGKCQHSVLGDFKPYKPGQTYIPCYFIHVLKRTD
B6: Potassium channel subfamily K member 1 (Homo sapiens), O00180 (parent)
chain: MLQSLAGSSCVRLVERHRSAWCFGFLVLGYLLYLVFGAVVFSSVELPYEDLLRQELRKLKRRFLEEHECLSEQQLEQFLGRVLEASNYGVSVLSNASGNWNWDFTSALFFASTVLSTTGYGHTVPLSDGGKAFCIIYSVIGIPFTLLFLTAVVQRITVHVTRRPVLYFHIRWGFSKQVVAIVHAVLLGFVTVSCFFFIPAAVFSVLEDDWNFLESFYFCFISLSTIGLGDYVPGEGYNQKFRELYKIGITCYLLLGLIAMLVVLETFCELHELKKFRKMFYVKKDKDEDQVHIIEHDQLSFSSITDQAAGMKEDQKQNEPFVATQSSACVDGPANH
partner: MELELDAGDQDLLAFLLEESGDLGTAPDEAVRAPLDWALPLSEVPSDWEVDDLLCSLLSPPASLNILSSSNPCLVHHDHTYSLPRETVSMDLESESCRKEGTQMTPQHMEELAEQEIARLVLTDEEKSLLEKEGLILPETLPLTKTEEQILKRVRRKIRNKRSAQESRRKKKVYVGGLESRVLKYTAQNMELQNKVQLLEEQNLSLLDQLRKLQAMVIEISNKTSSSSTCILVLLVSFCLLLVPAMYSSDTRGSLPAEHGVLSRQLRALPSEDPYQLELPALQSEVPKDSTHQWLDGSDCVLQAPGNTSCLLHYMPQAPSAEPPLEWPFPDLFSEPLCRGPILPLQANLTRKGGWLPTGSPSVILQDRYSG
B7: Pleckstrin homology domain-containing family N member 1 (Homo sapiens), Q494U1 (parent)
chain: MGNSHCVPQAPRRLRASFSRKPSLKGNREDSARMSAGLPGPEAARSGDAAANKLFHYIPGTDILDLENQRENLEQPFLSVFKKGRRRVPVRNLGKVVHYAKVQLRFQHSQDVSDCYLELFPAHLYFQAHGSEGLTFQGLLPLTELSVCPLEGSREHAFQITGPLPAPLLVLCPSRAELDRWLYHLEKQTALLGGPRRCHSAPPQRRLTRLRTASGHEPGGSAVCASRVKLQHLPAQEQWDRLLVLYPTSLAIFSEELDGLCFKGELPLRAVHINLEEKEKQIRSFLIEGPLINTIRVVCASYEDYGHWLLCLRAVTHREGAPPLPGAESFPGSQVMGSGRGSLSSGGQTSWDSGCLAPPSTRTSHSLPESSVPSTVGCSSQHTPDQANSDRASIGRRRTELRRSGSSRSPGSKARAEGRGPVTPLHLDLTQLHRLSLESSPDAPDHTSETSHSPLYADPYTPPATSHRRVTDVRGLEEFLSAMQSARGPTPSSPLPSVPVSVPASDPRSCSSGPAGPYLLSKKGALQSRAAQRHRGSAKDGGPQPPDAPQLVSSAREGSPEPWLPLTDGRSPRRSRDPGYDHLWDETLSSSHQKCPQLGGPEASGGLVQWI
partner: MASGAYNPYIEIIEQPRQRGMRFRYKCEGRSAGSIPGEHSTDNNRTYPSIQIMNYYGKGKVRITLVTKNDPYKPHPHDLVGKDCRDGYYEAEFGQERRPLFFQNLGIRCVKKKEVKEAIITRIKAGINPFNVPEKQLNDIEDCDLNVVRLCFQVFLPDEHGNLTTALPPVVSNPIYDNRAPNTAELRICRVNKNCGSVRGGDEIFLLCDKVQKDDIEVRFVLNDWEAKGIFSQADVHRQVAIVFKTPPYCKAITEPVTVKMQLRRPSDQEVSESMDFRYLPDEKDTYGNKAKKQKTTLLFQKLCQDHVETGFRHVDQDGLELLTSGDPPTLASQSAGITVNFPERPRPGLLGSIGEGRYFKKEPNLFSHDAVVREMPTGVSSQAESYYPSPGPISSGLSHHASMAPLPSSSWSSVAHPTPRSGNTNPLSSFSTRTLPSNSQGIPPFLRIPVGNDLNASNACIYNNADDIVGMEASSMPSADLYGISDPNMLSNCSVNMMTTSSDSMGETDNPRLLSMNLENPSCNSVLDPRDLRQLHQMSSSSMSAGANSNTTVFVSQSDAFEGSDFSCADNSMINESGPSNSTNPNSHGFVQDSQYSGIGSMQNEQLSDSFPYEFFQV
B8: Actin-associated protein FAM107A (Homo sapiens), O95990 (parent)
chain: MYSEIQRERADIGGLMARPEYREWNPELIKPKKLLNPVKASRSHQELHRELLMNHRRGLGVDSKPELQRVLEHRRRNQLIKKKKEELEAKRLQCPFEQELLRRQQRLNQLEKPPEKEEDHAPEFIKVRENLRRIATLTSEEREL
partner: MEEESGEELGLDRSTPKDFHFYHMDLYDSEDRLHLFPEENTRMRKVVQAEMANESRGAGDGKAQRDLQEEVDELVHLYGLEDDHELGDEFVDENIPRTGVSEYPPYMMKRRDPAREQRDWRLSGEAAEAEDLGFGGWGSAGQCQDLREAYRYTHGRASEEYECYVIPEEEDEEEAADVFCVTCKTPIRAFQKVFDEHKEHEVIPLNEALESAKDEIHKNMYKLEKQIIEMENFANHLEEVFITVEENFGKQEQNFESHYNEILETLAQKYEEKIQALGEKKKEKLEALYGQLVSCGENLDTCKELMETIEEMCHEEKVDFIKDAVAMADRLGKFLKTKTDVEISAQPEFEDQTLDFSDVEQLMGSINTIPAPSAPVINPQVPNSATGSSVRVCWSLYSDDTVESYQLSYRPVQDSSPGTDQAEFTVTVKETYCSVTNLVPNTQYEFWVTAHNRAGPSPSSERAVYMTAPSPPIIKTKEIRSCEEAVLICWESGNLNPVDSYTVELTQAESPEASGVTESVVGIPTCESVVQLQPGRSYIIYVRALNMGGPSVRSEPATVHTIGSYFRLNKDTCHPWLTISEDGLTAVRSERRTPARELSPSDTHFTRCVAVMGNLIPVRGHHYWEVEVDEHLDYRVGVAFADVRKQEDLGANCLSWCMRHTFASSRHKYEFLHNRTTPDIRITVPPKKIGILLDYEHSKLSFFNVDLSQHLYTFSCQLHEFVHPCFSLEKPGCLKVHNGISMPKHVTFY

Variants of: B1
Conditions: with cc136_human CCDC136, Q96JN2
cc136_human CCDC136, Q96JN2, sequence (Q96JN2 whole entry): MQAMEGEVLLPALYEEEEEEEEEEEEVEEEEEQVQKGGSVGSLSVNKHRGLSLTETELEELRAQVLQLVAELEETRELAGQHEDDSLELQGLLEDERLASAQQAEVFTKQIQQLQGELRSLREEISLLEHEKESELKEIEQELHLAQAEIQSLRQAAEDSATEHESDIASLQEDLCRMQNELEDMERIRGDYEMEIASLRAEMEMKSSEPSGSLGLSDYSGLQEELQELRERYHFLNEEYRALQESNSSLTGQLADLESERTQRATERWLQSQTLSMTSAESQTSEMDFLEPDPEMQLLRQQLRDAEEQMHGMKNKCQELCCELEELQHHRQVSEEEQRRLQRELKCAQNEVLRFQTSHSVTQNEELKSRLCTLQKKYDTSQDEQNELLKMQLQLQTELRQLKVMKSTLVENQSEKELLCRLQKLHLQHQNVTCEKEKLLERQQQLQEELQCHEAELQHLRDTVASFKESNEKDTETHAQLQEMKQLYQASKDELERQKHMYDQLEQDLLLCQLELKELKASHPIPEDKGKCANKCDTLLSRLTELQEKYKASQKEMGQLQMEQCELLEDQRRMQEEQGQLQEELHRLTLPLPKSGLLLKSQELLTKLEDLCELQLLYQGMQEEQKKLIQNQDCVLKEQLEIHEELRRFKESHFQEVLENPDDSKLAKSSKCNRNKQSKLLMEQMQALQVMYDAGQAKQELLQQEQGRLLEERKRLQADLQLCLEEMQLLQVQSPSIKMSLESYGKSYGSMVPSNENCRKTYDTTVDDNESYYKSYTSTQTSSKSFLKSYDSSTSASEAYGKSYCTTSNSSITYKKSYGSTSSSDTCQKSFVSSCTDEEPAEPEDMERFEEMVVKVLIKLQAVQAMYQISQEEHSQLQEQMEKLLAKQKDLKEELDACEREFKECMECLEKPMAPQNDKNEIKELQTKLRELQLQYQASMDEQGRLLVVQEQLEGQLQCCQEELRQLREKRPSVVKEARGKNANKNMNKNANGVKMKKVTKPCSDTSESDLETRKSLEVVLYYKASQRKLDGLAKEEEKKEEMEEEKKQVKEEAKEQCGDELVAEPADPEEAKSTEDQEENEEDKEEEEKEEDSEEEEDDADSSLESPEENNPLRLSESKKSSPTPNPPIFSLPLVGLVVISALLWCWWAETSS

effect of a mutation on the interaction | Variant
with no effect | R143W

Variants of: B1
Conditions: with mtus2_human MTUS2, Q5JR59
mtus2_human MTUS2, Q5JR59, sequence (Q5JR59 whole entry): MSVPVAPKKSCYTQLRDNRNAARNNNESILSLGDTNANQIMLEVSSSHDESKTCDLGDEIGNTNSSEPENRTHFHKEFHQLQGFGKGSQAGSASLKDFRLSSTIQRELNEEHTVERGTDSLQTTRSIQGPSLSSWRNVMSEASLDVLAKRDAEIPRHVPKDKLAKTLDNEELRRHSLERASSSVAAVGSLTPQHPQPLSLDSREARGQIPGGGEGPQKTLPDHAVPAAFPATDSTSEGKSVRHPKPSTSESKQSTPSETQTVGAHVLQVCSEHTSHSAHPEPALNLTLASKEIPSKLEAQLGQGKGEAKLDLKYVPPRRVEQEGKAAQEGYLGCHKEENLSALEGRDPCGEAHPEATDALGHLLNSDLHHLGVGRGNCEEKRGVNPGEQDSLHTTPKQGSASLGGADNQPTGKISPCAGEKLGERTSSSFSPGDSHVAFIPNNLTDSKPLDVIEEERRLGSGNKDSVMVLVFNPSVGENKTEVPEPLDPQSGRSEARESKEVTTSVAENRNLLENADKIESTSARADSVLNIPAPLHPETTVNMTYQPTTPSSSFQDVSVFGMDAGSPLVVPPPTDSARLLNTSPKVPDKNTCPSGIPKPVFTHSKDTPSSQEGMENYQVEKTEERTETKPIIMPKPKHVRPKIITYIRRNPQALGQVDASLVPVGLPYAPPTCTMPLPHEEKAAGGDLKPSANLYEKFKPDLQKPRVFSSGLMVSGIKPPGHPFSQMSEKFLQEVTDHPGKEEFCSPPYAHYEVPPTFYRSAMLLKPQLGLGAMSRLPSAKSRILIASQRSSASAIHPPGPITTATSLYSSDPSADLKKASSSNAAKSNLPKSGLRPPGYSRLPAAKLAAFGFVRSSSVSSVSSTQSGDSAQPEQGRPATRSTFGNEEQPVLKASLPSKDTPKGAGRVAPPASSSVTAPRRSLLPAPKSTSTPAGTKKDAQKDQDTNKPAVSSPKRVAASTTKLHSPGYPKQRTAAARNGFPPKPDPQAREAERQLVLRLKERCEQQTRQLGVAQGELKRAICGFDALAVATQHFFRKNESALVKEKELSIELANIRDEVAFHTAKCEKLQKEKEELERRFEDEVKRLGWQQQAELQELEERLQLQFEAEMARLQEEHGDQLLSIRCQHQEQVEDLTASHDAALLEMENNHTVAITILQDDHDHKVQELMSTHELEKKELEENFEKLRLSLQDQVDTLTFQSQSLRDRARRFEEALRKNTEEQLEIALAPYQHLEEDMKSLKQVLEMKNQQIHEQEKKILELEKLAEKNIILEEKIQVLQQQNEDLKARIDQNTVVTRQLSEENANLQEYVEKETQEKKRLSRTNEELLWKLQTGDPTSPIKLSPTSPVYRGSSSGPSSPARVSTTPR

effect of a mutation on the interaction | Variant
with no effect | R143W

Variants of: B1
Conditions: with tri23_human TRIM23, P36406
tri23_human TRIM23, P36406, sequence (P36406 whole entry): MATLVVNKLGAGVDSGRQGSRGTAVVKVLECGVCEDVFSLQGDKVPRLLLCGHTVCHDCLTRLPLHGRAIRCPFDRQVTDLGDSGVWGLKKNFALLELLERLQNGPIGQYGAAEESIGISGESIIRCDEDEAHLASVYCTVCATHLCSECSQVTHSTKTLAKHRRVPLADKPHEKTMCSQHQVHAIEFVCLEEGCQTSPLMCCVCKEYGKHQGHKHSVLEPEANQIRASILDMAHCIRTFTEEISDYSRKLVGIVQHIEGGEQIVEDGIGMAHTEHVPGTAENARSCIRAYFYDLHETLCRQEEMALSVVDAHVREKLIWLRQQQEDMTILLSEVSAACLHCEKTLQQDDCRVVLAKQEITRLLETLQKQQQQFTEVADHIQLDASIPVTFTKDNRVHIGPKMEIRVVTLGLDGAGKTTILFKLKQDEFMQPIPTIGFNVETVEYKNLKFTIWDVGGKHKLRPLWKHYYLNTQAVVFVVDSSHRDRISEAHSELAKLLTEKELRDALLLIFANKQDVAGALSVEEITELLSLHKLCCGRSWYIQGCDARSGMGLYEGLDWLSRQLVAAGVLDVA

effect of a mutation on the interaction | Variant
with no effect | R143W

Variants of: B2
Conditions: with chch2_human CHCHD2, Q9Y6H1

effect of a mutation on the interaction | Variant
with no effect | N328S

Variants of: B3
Conditions: with stk16_human STK16, O75716
stk16_human STK16, O75716, sequence (O75716 whole entry): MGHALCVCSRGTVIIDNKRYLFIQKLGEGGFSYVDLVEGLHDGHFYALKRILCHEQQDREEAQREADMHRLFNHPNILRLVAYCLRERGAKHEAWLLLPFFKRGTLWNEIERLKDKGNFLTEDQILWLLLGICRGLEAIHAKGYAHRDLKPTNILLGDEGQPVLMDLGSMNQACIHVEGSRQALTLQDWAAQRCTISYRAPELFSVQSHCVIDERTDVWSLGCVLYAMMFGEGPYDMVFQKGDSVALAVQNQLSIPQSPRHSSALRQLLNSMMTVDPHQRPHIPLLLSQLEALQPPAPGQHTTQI

effect of a mutation on the interaction | Variant
with no effect | R171C

Variants of: B4
Conditions: with cep70_human CEP70, Q8NHQ1
cep70_human CEP70, Q8NHQ1, sequence (Q8NHQ1 whole entry): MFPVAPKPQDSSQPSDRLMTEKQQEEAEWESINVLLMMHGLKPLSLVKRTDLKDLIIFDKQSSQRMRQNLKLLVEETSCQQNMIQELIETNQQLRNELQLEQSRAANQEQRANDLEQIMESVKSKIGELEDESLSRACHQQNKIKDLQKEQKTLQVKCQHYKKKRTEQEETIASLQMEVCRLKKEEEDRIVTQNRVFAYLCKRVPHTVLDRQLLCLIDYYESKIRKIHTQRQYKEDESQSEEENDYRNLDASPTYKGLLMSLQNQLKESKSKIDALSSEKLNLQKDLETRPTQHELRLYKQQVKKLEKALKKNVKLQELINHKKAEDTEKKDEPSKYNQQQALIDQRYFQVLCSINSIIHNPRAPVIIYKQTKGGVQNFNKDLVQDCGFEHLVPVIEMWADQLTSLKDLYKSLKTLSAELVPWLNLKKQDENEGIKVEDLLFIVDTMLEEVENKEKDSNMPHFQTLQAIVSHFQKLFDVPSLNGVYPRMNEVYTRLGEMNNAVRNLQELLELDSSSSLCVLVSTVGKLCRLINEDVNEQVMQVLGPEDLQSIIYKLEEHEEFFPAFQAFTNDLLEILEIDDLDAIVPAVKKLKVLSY

effect of a mutation on the interaction | Variant
with no effect | R298K
with no effect | R675C

Variants of: B5
Conditions: with ntaq1_human NTAQ1, Q96HA8

effect of a mutation on the interaction | Variant
with no effect | I211T

Variants of: B5
Conditions: with arrc_human ARR3, P36575
arrc_human ARR3, P36575, sequence (P36575 whole entry): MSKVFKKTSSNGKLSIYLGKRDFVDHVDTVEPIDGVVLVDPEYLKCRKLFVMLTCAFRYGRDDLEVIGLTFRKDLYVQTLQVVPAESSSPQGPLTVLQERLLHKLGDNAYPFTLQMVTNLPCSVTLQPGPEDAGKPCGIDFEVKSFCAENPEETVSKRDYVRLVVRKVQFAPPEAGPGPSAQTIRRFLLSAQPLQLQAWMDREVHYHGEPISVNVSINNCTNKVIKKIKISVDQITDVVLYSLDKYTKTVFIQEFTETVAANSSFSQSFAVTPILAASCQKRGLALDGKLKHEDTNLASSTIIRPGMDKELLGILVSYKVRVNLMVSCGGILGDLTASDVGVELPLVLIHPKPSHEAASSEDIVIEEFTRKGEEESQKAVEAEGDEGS

effect of a mutation on the interaction | Variant
disrupting interaction strength | I211T

Variants of: B5
Conditions: with arrb1_human ARRB1, P49407
arrb1_human ARRB1, P49407, sequence (P49407 whole entry): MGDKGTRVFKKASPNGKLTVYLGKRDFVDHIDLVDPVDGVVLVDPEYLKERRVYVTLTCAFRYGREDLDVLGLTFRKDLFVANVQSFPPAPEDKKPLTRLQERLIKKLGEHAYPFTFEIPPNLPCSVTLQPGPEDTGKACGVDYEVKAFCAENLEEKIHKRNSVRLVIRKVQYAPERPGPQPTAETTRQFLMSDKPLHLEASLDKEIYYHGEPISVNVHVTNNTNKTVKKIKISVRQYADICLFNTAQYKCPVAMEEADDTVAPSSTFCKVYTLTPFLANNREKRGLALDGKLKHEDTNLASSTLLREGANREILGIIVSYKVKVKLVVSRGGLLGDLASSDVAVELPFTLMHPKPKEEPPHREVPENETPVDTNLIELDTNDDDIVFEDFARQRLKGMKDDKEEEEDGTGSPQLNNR

effect of a mutation on the interaction | Variant
disrupting interaction strength | I211T

Variants of: B6
Conditions: with creb3_human CREB3, O43889

effect of a mutation on the interaction | Variant
with no effect | R171H

Variants of: B7
Conditions: with rel_human REL

effect of a mutation on the interaction | Variant
with no effect | R487P

Variants of: B8
Conditions: with fsd2_human FSD2, A1L4K1

effect of a mutation on the interaction | Variant
disrupting interaction strength | E141Q

Source: IntAct's records for PubMed 31515488
